From patent US20260167699A1 (Chugai, published 2026)
Substitutions are numbered along the chain they refer to.

T1: FcγRIIa(R) extracellular domain, C-terminal His tag (human, UniProt P12318 34-217)
T1 construct: extracellular domain; Allotype R131; also called 2aR
T1 sequence: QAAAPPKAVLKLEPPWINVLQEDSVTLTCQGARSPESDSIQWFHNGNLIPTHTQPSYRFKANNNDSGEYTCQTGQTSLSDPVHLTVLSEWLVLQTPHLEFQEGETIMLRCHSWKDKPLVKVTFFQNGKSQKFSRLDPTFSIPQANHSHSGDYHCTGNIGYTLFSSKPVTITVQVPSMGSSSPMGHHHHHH

T2: FcγRIIa(H) extracellular domain, C-terminal His tag (human, UniProt P12318 34-217)
T2 construct: extracellular domain; Allotype H131; also called 2aH
T2 sequence: T1 sequence with R134H

T3: FcγRIIb extracellular domain, C-terminal His tag (human, UniProt P31994 43-217)
T3 construct: extracellular domain; also called 2b
T3 sequence: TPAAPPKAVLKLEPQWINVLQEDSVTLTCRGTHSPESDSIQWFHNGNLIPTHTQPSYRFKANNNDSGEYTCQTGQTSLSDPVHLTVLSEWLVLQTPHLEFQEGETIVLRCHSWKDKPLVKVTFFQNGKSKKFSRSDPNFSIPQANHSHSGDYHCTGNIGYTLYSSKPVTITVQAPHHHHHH

B1: H240-Kn125/H240-Hl076/L73-k0 (antibody, human IgG1, kappa)
heavy 1: QDQLVQSGAEVKKPGASVKVSCKASGFNIKDTYIQWVRQAPGQGLEWMGRIDPLRKQTKYREKFEGRVTITADTSTNTAYMELSSLRSEDTAVYYCVRSGREFDYWGQGTLVTVSSASTKGPSVFPLAPSSKSTSGGTAALGCLVKDYFPEPVTVSWNSGALTSGVHTFPAVLQSSGLYSLSSVVTVPSSSLGTQTYICNVNHKPSNTKVDKKVEPKSCDKTHTCPPCPAPELLGGPSVFLFPPKPKDTLMISRTPEVTCVVVDVSHEEPEVKFNWYVDGVEVHNAKTKPREEQYNSTYRVVSVLTVLHQDWLNGKEYKCKVSNDALPMPIEETISKAKGQPREPQVYTLPPSRCELTKNQVSLSCAVKGFYPSDIAVEWESNGQPENNYKTTPPVLDSDGSFFLVSKLTVDKSRWQQGNVFSCSVMHEALHNHYTQKSLSLSP
heavy 2: QDQLVQSGAEVKKPGASVKVSCKASGFNIKDTYIQWVRQAPGQGLEWMGRIDPLRKQTKYREKFEGRVTITADTSTNTAYMELSSLRSEDTAVYYCVRSGREFDYWGQGTLVTVSSASTKGPSVFPLAPSSKSTSGGTAALGCLVKDYFPEPVTVSWNSGALTSGVHTFPAVLQSSGLYSLSSVVTVPSSSLGTQTYICNVNHKPSNTKVDKKVEPKSCDKTHTCPPCPAPEYQWGPMVFLFPPKPKDTLMISRTPEVTCVVVDVSDEEPEVKFNWYVDGVEVHNAKTKPREEQYNATYRVVSVLTVLHQDWLNGKEYKCKVSNKALPAPIEKTISKAKGQPREPQVCTLPPSRDELTKNQVSLWCLVKGFYPSDIAVEWESNGQPENNYKTTPPVLDSDGSFFLYSKLTVDKSRWQQGNVFSCSVMHEALHNHYTQKSLSLSP
light: DIQMTQSPSSLSASVGDRVTITCRASQDIHKYIAWYQQKPGQAPRLLIQYTSTLQPGVPSRFSGSGSGTDYTFTISSLQPEDIATYYCLQYEQLRTFGGGTKVEIKRTVAAPSVFIFPPSDEQLKSGTASVVCLLNNFYPREAKVQWKVDNALQSGNSQESVTEQDSKDSTYSLSSTLTLSKADYEKHKVYACEVTHQGLSSPVTKSFNRGEC
notes: heterodimerized anti-EREG antibody, parent of the loop-extended forms; also called HI076/Kn125; parent peptide
B2: HI076-L2-9 (antibody, human IgG1, kappa)
heavy 1: QDQLVQSGAEVKKPGASVKVSCKASGFNIKDTYIQWVRQAPGQGLEWMGRIDPLRKQTKYREKFEGRVTITADTSTNTAYMELSSLRSEDTAVYYCVRSGREFDYWGQGTLVTVSSASTKGPSVFPLAPSSKSTSGGTAALGCLVKDYFPEPVTVSWNSGALTSGVHTFPAVLQSSGLYSLSSVVTVPSSSLGTQTYICNVNHKPSNTKVDKKVEPKSCDKTHTCPPCPAPELLGGPSVFLFPPKPKDTLMISRTPEVTCVVVDVSHGGSGGSGGSEEPEVKFNWYVDGVEVHNAKTKPREEQYNSTYRVVSVLTVLHQDWLNGKEYKCKVSNDALPMPIEETISKAKGQPREPQVYTLPPSRCELTKNQVSLSCAVKGFYPSDIAVEWESNGQPENNYKTTPPVLDSDGSFFLVSKLTVDKSRWQQGNVFSCSVMHEALHNHYTQKSLSLSP
heavy 2: B1 heavy 2
light: B1 light
notes: heterodimerized anti-EREG antibody: altered H240-Hl076 chain (Gly/Ser peptide in loop) with H240-Kn125 and L73-k0; also called Hl076-L2-9
B3: HI076-L2-GS12 (antibody, human IgG1, kappa)
heavy 1: QDQLVQSGAEVKKPGASVKVSCKASGFNIKDTYIQWVRQAPGQGLEWMGRIDPLRKQTKYREKFEGRVTITADTSTNTAYMELSSLRSEDTAVYYCVRSGREFDYWGQGTLVTVSSASTKGPSVFPLAPSSKSTSGGTAALGCLVKDYFPEPVTVSWNSGALTSGVHTFPAVLQSSGLYSLSSVVTVPSSSLGTQTYICNVNHKPSNTKVDKKVEPKSCDKTHTCPPCPAPELLGGPSVFLFPPKPKDTLMISRTPEVTCVVVDVGGGSGGGSGGGSVKFNWYVDGVEVHNAKTKPREEQYNSTYRVVSVLTVLHQDWLNGKEYKCKVSNDALPMPIEETISKAKGQPREPQVYTLPPSRCELTKNQVSLSCAVKGFYPSDIAVEWESNGQPENNYKTTPPVLDSDGSFFLVSKLTVDKSRWQQGNVFSCSVMHEALHNHYTQKSLSLSP
heavy 2: B1 heavy 2
light: B1 light
notes: heterodimerized anti-EREG antibody: altered H240-Hl076 chain (Gly/Ser peptide in loop) with H240-Kn125 and L73-k0; also called Hl076-L2-GS12_2
B4: HI076-L2-3 (antibody, human IgG1, kappa)
heavy 1: QDQLVQSGAEVKKPGASVKVSCKASGFNIKDTYIQWVRQAPGQGLEWMGRIDPLRKQTKYREKFEGRVTITADTSTNTAYMELSSLRSEDTAVYYCVRSGREFDYWGQGTLVTVSSASTKGPSVFPLAPSSKSTSGGTAALGCLVKDYFPEPVTVSWNSGALTSGVHTFPAVLQSSGLYSLSSVVTVPSSSLGTQTYICNVNHKPSNTKVDKKVEPKSCDKTHTCPPCPAPELLGGPSVFLFPPKPKDTLMISRTPEVTCVVVDVSHGGSEEPEVKFNWYVDGVEVHNAKTKPREEQYNSTYRVVSVLTVLHQDWLNGKEYKCKVSNDALPMPIEETISKAKGQPREPQVYTLPPSRCELTKNQVSLSCAVKGFYPSDIAVEWESNGQPENNYKTTPPVLDSDGSFFLVSKLTVDKSRWQQGNVFSCSVMHEALHNHYTQKSLSLSP
heavy 2: B1 heavy 2
light: B1 light
notes: heterodimerized anti-EREG antibody: altered H240-Hl076 chain (Gly/Ser peptide in loop) with H240-Kn125 and L73-k0; also called Hl076-L2-3
B5: HI076-L2-GS6 (antibody, human IgG1, kappa)
heavy 1: B1 heavy 1 with S266G, H267G, E268S, E269G, P270G, E271S
heavy 2: B1 heavy 2
light: B1 light
notes: heterodimerized anti-EREG antibody: altered H240-Hl076 chain (Gly/Ser peptide in loop) with H240-Kn125 and L73-k0; also called Hl076-L2-GS6_2
B6: Kn125-L4-GS5 (antibody, human IgG1, kappa)
heavy 1: B1 heavy 1
heavy 2: B1 heavy 2 with K325G, A326S, L327G, P328G, A329S
light: B1 light
notes: heterodimerized anti-EREG antibody: altered H240-Kn125 chain (Gly/Ser peptide in loop) with H240-Hl076 and L73-k0
B7: HI076-L2-6 (antibody, human IgG1, kappa)
heavy 1: B3 heavy 1 with G266S, G267H, S269G, G270S, G274E, G275E, G276P, S277E
heavy 2: B1 heavy 2
light: B1 light
notes: heterodimerized anti-EREG antibody: altered H240-Hl076 chain (Gly/Ser peptide in loop) with H240-Kn125 and L73-k0; also called Hl076-L2-6
B8: GpH7-A5/GpH7-B3 variant P331_16H/GpL16-k0 (antibody, human IgG1, kappa)
heavy 1: not shown
heavy 2: not shown
light: DIVMTQSPLSLPVTPGEPASISCQASESLVHSNRNTYLHWYLQKPGQSPQLLIYKVSNRFSGVPDRFSGSGSGTDFTLKISRVEAEDVGVYYCSQNTHVPPTFGQGTKVEIERTVAAPSVFIFPPSDEQLKSGTASVVCLLNNFYPREAKVQWKVDNALQSGNSQESVTEQDSKDSTYSLSSTLTLSKADYEKHKVYACEVTHQGLSSPVTKSFNRGEC
notes: He Ab: anti-glypican 3 IgG1 heterodimer, only the GpH7-B3 chain mutated; position in EU numbering; also called He Ab
B9: GpH7-A5/GpH7-B3 variant S324_16H/GpL16-k0 (antibody, human IgG1, kappa)
heavy 1: not shown
heavy 2: not shown
light: B8 light
notes: as for B8
B10: GpH7-A5/GpH7-B3 variant S324_01G/GpL16-k0 (antibody, human IgG1, kappa)
heavy 1: not shown
heavy 2: not shown
light: B8 light
notes: as for B8
B11: GpH7-A5/GpH7-B3 variant P331_19Q/GpL16-k0 (antibody, human IgG1, kappa)
heavy 1: not shown
heavy 2: not shown
light: B8 light
notes: as for B8
B12: GpH7-A5/GpH7-B3 variant P331_20W/GpL16-k0 (antibody, human IgG1, kappa)
heavy 1: not shown
heavy 2: not shown
light: B8 light
notes: as for B8
B13: GpH7-A5/GpH7-B3 variant P331_18N/GpL16-k0 (antibody, human IgG1, kappa)
heavy 1: not shown
heavy 2: not shown
light: B8 light
notes: as for B8
B14: GpH7-A5/GpH7-B3 variant S324_02A/GpL16-k0 (antibody, human IgG1, kappa)
heavy 1: not shown
heavy 2: not shown
light: B8 light
notes: as for B8
B15: GpH7-A5/GpH7-B3 variant S324_06M/GpL16-k0 (antibody, human IgG1, kappa)
heavy 1: not shown
heavy 2: not shown
light: B8 light
notes: as for B8

target: T4, FcγRIIIaV (human, UniProt P08637 17-208); assay: SPR (Biacore), antibody captured, FcγR as analyte, 1:1 Langmuir fit
T4 construct: extracellular domain
T4 sequence (P08637 other isoform, or with tags, fused parts or gaps): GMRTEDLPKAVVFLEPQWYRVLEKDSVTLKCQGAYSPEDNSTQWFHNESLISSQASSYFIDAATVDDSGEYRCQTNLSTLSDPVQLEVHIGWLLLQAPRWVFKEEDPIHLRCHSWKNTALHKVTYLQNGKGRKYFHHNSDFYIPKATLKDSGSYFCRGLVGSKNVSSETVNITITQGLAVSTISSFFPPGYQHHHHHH
Experimental: The antibody of interest was analyzed for its interaction with FcγR using a BiaCore™ T100, BiaCore™ A100, or BiaCore™ 4000 surface plasmon resonance system (GE Healthcare Japan Corp.). The running buffer used was HBS-EP+ (GE Healthcare Japan Corp.). The assay temperature was set to 25° C. The sensor chips used were: a chip prepared by immobilizing antigenic peptides onto Series S Sensor Chip CM5 (GE Healthcare Japan Corp.) by the amine coupling method; a chip prepared by immobilizing antigenic peptides biotinylated in advance onto Series S Sensor Chip SA (certified) (GE Healthcare Japan Corp.) through their interaction; a chip prepared by immobilizing protein L (ACTIGEN, BioVision, Inc.) onto Series S Sensor Chip CM5 (GE Healthcare Japan Corp.); and a chip prepared by immobilizing protein A/G (Thermo Fisher Scientific K.K.) onto Series S Sensor Chip CM5 (GE Healthcare Japan Corp.). The antibody of interest was captured onto any of these chips and allowed to interact with FcγR diluted with a running buffer. The antibody captured on the chip was washed off through the reaction of 10 mM glycine-HCl (pH 1.5) to regenerate the chip, which was repetitively used.

Kd	Binder
0.47 nM	B1
2.4 nM	B2
2.8 nM	B3
2.3 nM	B4
2.8 nM	B5
1.8 nM	B6
1.9 nM	B7

target: T1, FcγRIIa(R) extracellular domain, …; assay: SPR (Biacore); binding relative to GpH7-A5/GpH7-B3/GpL16-k0 x100;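 note: antibodies captured on a chip surface, soluble FcγR flowed over in HBS-EP+ running buffer at 25 °C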

He/Con 2aR	Binder
113%	B8
105%	B9
94.4%	B10
96.1%	B11
109%	B12
104%	B13
99.9%	B14
118%	B15

target: T2, FcγRIIa(H) extracellular domain, …; assay: as above

He/Con 2aH	Binder
87.5%	B8
113%	B9
110%	B10
91.6%	B11
85.8%	B12
87.2%	B13
114%	B14
122%	B15

target: T5, FcγRIa extracellular domain, C-terminal His tag (human, UniProt P12314 16-292); assay: as above
T5 construct: extracellular domain; also called 1a
T5 sequence (P12314 other isoform, or with tags, fused parts or gaps): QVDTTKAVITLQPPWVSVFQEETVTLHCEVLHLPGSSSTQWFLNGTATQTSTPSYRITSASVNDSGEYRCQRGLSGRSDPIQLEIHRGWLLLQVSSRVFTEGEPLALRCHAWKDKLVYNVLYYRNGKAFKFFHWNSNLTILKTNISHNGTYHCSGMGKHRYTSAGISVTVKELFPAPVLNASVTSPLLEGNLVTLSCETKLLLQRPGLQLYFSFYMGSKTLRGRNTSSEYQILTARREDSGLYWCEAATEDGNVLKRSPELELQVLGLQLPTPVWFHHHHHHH

He/Con 1a	Binder
105%	B8
106%	B9
93.2%	B10
108%	B11
107%	B12
106%	B13
96.9%	B14
104%	B15

target: T3, FcγRIIb extracellular domain, …; assay: as above

He/Con 2b	Binder
128%	B8
109%	B9
106%	B10
94%	B11
123%	B12
110%	B13
102%	B14
126%	B15

target: T6, FcγRIIIa extracellular domain, C-terminal His tag (human, UniProt P08637 17-208); assay: as above
T6 construct: extracellular domain; also called 3a
T6 sequence (P08637 other isoform, or with tags, fused parts or gaps): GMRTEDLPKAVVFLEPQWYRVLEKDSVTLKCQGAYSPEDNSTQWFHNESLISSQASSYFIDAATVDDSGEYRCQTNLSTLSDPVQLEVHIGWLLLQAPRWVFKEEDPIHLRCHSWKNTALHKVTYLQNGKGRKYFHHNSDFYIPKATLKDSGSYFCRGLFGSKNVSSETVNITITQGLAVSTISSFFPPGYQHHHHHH

He/Con 3a	Binder
73.4%	B8
113%	B9
114%	B10
73.9%	B11
71.9%	B12
67.1%	B13
113%	B14
124%	B15
